ChEMBL document CHEMBL4706636, “Determining Essential Requirements for Fluorophore Selection in Various Fluorescence Applications Taking Advantage of Diverse Structure-Fluorescence Information of Chromone Derivatives” (J Med Chem, 2021)

Columns and labels:
[1] = tested on: CCCc1coc2cc(NC(=O)C(N)CCCCN)c(OC)cc2c1=O; assay: (§1) Substrate activity at trypsin (unknown origin) by fluorescent biochemical assay; type: protein assay; conditions: Homo sapiens
[2] = tested on: CCCc1coc2cc(NC(=O)C(N)CCCCN)ccc2c1=O; assay: as §1; type: protein assay; conditions: Homo sapiens

“Trypsin (Homo sapiens) (from UniProt P07477+P07478+P35030)” showed a Km [1] of 30.3 µM and a Km [2] of 47.6 µM.
